# Experimental data: PMC4870115 (Biochemistry, 2016)
# B1: ToxA of Burkholderia glumae (enzyme)
# chain: MSTTARYDSIGGLFEDFTQSAAQRAIEVRTIFHMIGDVSGKSVLDLACGFGFFGREIYRRGAAKVVGVDISEKMIELAREESRKYGDPLEFHVRDVANMEPLGQFDLVNAAWLFNYADSVENLRKMFKVVRASLKPDGKLVAYTVDPDFSLAKGNFAKYGVNVLNERAWGPGYRHDAEFVTDPPSQFSFYRWSRADYESAIADAGFSHFEWQKPLLEADDIATHPPGFWDVFQNNCLQTGLVCKP
# Biological target: the molecule itself
# Assay: crystal structure
protein,measurement,value
B1,stoichiometry N,4
